These results are taken from publication PMC4484258, “Identification of BST-2/tetherin-induced hepatitis B virus restriction and hepatocyte-specific BST-2 inactivation” (Scientific Reports, 2015).

The test concerns the target HBV enveloped particles (HBsAg) released from cells transfected with the pCMV ayw HBV proviral construct (hepatitis B virus (ayw), UniProt P03138-1 1-389; P03138-2 1-281; P03138-3 1-226). The experiment in a line: cell-based or functional assay.

HBV enveloped particles (HBsAg) released from cells transfected with the pCMV ayw HBV proviral construct, sequence (P03138 whole entry, chain 1 of 3): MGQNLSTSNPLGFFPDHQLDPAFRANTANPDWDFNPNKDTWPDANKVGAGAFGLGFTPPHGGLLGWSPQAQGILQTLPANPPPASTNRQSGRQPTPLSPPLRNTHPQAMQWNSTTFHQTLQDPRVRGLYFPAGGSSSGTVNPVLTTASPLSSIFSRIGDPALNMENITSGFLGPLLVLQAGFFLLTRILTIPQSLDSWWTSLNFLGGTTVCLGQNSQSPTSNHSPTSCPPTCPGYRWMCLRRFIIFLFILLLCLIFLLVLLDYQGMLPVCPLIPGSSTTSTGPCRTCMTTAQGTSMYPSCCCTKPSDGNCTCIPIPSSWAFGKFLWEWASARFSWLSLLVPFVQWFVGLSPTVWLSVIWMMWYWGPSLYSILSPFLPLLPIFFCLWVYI
HBV enveloped particles (HBsAg) released from cells transfected with the pCMV ayw HBV proviral construct, sequence (P03138 109-389, chain 2 of 3): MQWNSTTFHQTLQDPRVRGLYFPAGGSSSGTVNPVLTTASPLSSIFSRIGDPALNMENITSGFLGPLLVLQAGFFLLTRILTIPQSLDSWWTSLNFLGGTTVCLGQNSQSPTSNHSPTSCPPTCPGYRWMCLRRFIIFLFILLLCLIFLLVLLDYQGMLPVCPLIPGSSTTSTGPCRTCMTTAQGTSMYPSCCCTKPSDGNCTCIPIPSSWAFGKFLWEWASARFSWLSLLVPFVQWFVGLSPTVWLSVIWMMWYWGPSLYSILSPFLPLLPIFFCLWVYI
HBV enveloped particles (HBsAg) released from cells transfected with the pCMV ayw HBV proviral construct, sequence (P03138 164-389, chain 3 of 3): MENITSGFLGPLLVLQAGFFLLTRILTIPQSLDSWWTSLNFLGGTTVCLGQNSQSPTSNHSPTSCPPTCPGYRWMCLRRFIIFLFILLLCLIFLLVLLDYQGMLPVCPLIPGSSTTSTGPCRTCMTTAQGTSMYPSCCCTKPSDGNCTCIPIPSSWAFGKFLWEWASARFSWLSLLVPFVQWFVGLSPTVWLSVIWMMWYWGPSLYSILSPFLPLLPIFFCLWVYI

B1: BST-2 with an internal HA tag (BST-2 IHA), wild type (natural protein)
chain: MASTSYDYCRVPMEDGDKRCKLLLGIGILVLLIIVILGVPLIIFTIKANSEACRDGLRAVMECRNVTHLLQQELTEAQKGFQDVEAQAATCNHTVMALMASLDAEKAQGQKKVEELEGEITTLNHKLQDASAEVERLRRENQVLSVRIADKKYYPSSQDSS
On to B1, for which the “BST-2-induced NF-κB signaling (pNF-κB-Luc reporter in 293T cells) in the presence of HBV expression” value is approximately 10 fold.
